The values that follow come from PMC6769069.

The target in this test is HybD endoprotease fused with peptide T18 of adenylate cyclase (pT18-hybD) (Escherichia coli) (UniProt P37182). In words: two-hybrid; bacterial two-hybrid (adenylate cyclase fragments T25 and T18) in E. coli BTH101; T25 at the N-terminus of the large subunit variants, T18 fused with HybD; anaerobic growth in TGYEP medium pH 6.5 at 30°C for 16 h; β-galactosidase activity according to Miller.
UniProt P37182, sequence (P37182 whole entry, the tested form may be a part): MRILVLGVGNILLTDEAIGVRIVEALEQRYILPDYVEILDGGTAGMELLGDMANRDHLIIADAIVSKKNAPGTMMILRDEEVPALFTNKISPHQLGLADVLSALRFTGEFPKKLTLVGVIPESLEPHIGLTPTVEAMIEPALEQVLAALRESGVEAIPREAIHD

Take “pro-HybC^§ fused to peptide T25 of adenylate cyclase (pT25-hybC^§) (from UniProt P0ACE0 2-552)”: the β-galactosidase activity was determined as 820 units.
